Experiments:
NCI-H2110 cells = test: Crystal Violet cytotoxicity assay (Example 4), NCI-H2110; assay type: cell-based, human; settings: mean of replicate experiments, read-out: Cytotoxicity IC50 (nM), NCI-H2110 (FR^med, MSLN^med)
Procedure: (§1) Test reagents were serial diluted 1:3 in 2 mL deep-well dilution plates, starting at 200 nM (10 dilutions total). […] Medium was then discarded. […] Plates were read at 570 nm. Data was analyzed using GraphPad Prism 6.

[1] = target: Recombinant human folate receptor alpha (Homo sapiens, UniProt P15328); test: ELISA, folate receptor alpha; assay type: binding; settings: MORAb-003 and its ADCs
Chain of Recombinant human folate receptor alpha (P15328 25-234): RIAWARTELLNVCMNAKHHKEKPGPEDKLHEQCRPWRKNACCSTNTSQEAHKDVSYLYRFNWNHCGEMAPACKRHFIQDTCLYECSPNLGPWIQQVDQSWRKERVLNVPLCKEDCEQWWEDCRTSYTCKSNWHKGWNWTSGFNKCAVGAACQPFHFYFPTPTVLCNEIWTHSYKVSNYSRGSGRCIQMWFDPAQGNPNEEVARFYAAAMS
Procedure: Coating solution was discarded and the plates were washed three times using 1×PBS with 0.05% Tween-20 (PBST) buffer. Plates were blocked in 300 μL blocking buffer (1% BSA in PBST) at room temperature for 2 hours on an orbital shaker. […] Blocking buffer was discarded and 100 μL/well of diluted antibody was added to the plates. Plates were incubated at room temperature for 2 hours on an orbital shaker. Antibody solution was discarded and plates were washed three times using PBST. 100 μL/well of goat-anti-human IgG (H+L)-HRP (1:10,000 dilution in blocking buffer) solution was added to the plates, and plates were incubated at room temperature for 1 hour on an orbital shaker. Secondary antibody solution was discarded and plates were washed three times using PBST. 100 μL/well of QuantaBlu fluorogenic peroxidase substrate working solution (Thermo, Cat No. 15169) was added to the plates, and plates were incubated at room temperature for 30 min. Fluorescence was read at excitation 325 nm/emission 420 nm using a SpectraMax M5 (Molecular Devices). Data was analyzed using SoftMaxPro 5.4.2 software with 4-parameter fitting.

IGROV1 cells = test: Crystal Violet cytotoxicity assay (Example 4), IGROV1; assay type: cell-based, human; settings: mean of replicate experiments, read-out: Cytotoxicity IC50 (nM), IGROV1 (FR^hi, MSLN^neg)
Procedure: as §1

A431 cells = test: Crystal Violet cytotoxicity assay (Example 4), A431 (parental); assay type: cell-based, human; settings: mean of replicate experiments, read-out: Cytotoxicity IC50 (nM), A431 (FR^neg, MSLN^neg)
Procedure: Test reagents were serial diluted 1:3 in 2 mL deep-well dilution plates, starting at 200 nM (10 dilutions total). […] Medium was then discarded. […] Plates were read at 570 nm. Data was analyzed using GraphPad Prism 6. […]
MAL-PEG2-Val-Cit-PAB-eribulin (ER-001159569) was conjugated to eight different anti-human mesothelin antibodies (Table 1). Binding affinities of the parental antibodies were determined by BIAcore analysis, as described above in section 1.6.1. Aggregation levels for all anti-human mesothelin ADCs were determined by SEC-HPLC and the DAR was analyzed using HIC-HPLC. In vitro potency was evaluated using a Crystal Violet cell-based cytotoxicity assay in A3 (A431 stabily transfected with human mesothelin (MSLN), MSLN^hi), OVCAR3 (human ovarian, MSLN^hi), HEC-251 (human endometroid, MSLN^med), H226 (human lung squamous cell mesothelioma, MSLN^lo), and A431 parental (MSLN^neg) cells.

[2] = SEC-HPLC aggregation analysis; assay type: physicochemical
Procedure: The antibody aggregation was analyzed by size-exclusion, high-performance liquid chromatography (SEC-HPLC) using an Agilent 1100. The mAb was diluted to 1 mg/mL in DPBS. The antibody (20 μL) was injected onto a TSKgel® SuperSW guard column (4.6 mm×3.5 cm, 4 μm pore size, Tosoh Bioscience), followed by a TSKgel® SuperSW3000 column (4.6 mm×30 cm, 4 μm pore size), eluted from the column with 0.1 M sodium phosphate containing 0.15 M NaCl and 0.05% NaN3, at pH 7.4, at a flow rate of 0.3 mL/min for 20 min. All data were analyzed using Agilent ChemStation software. Percent aggregation was calculated as [PAaggregate/PAtotal]*100, where PA=integrated peak area.
ADC was diluted to 1 mg/mL in DPBS. ADC (10 μL) was then injected onto an Advanced SEC 300A guard column (4.6 mm×3.5 cm, 2.7 μm pore size, Agilent), followed by a AdvancedBio 300A column (4.6 mm×30 cm, 2.7 μm pore size). ADC was eluted from the column with 0.1 M sodium phosphate containing 0.15 M NaCl and 5% IPA, pH 7.4 at a flow rate of 0.25 mL/min for 28 min. All data were analyzed using Agilent ChemStation software. Percent aggregation was calculated as [PAaggregate/PAtotal]*100, where PA=integrated peak area.

Substance | IC50 (NCI-H2110 cells) | Antigen Binding ELISA, EC50 [1] | IC50 (IGROV1 cells) | IC50 (A431 cells) | SEC-HPLC Analysis % Frag. [2] | SEC-HPLC Analysis % Monomer [2]
MORAb003-DBCO-PEG2 eribulin | 38.1 nM | 0.0191 µg/mL | 4.25 nM | > 100 nM | – | –
MORAb003-DBCO-PEG4 VCP eribulin | 4.28 nM | 0.016 µg/mL | 0.038 nM | > 100 nM | – | –
MORAb003-DBCO-PEG4 eribulin | 46.3 nM | 0.0133 µg/mL | 1.32 nM | > 100 nM | – | –
MORAb003-PEG2-eribulin | 38.3 nM | 0.00696 µg/mL | 0.33 nM | > 100 nM | – | –
MORAb003-PEG4-eribulin | 21.6 nM | 0.00931 µg/mL | 0.277 nM | > 100 nM | 0% | 89.76%

— US20230398228A1, “ERIBULIN-BASED ANTIBODY-DRUG CONJUGATES AND METHODS OF USE” (EISAI R&D MANAGEMENT CO., LTD., priority 2016, published 2023)
